According to paper PMC4837482, “The complex binding mode of the peptide hormone H2 relaxin to its receptor RXFP1” (Nature Communications, 2016):
Residue numbers refer to the chain shown, from its start.

What was measured:
Experiment in all cases: cAMP activity assay (pCRE β-galactosidase reporter), transfected HEK293T cells
Format in all cases: cell-based
[1] = biological target: T1, RXFP1 G45A (Homo sapiens, UniProt Q9HBX9, G67A); details: construct G45A, ±s.e.m.
T1 construct: transiently transfected human embryonic kidney (HEK) 293T cells expressing full-length RXFP1 and mutants; expressed in transfected cells; host or cells: HEK293T
T1 sequence (Q9HBX9 23-757 G67A limits assumed): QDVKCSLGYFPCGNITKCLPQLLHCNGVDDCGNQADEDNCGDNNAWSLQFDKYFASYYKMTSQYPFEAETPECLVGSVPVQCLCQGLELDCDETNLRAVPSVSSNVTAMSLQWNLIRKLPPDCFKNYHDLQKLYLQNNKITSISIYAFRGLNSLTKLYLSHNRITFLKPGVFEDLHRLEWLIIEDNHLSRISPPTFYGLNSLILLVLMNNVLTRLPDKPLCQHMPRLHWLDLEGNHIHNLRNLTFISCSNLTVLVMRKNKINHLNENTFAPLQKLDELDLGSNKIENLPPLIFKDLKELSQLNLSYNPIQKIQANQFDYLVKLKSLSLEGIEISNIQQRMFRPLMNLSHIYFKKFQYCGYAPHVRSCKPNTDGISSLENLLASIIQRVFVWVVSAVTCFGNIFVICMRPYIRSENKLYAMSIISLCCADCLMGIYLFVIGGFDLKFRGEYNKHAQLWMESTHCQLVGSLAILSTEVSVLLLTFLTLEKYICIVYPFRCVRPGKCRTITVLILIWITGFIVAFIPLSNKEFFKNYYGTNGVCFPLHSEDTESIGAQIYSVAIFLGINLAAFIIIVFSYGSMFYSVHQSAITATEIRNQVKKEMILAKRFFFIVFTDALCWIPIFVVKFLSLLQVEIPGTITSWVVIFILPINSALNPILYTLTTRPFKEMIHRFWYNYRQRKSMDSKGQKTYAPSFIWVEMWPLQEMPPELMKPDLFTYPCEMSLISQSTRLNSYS
How it was run: (§1)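 Stim: H2 relaxin in minimal media/1% DMSO; +ctrl 5 μM Forskolin, −ctrl vehicle. Plates frozen −80 °C o/n, lysed 10 min + 10 min in Na2HPO4 pH 8.0 buffers, CPRG substrate, A570. Data = % Forskolin max.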

[2] = biological target: T2, RXFP1 N43N44-AA (Homo sapiens, UniProt Q9HBX9, N65A/N66A)
T2 construct: transiently transfected human embryonic kidney (HEK) 293T cells expressing full-length RXFP1 and mutants; expressed in transfected cells; host or cells: HEK293T
T2 sequence (Q9HBX9 23-757 N65A/N66A limits assumed): T1 sequence (Q9HBX9 23-757 G67A limits assumed) with N43A, N44A, A45G
How it was run: as §1

[3] = biological target: T3, RXFP1 Q49A/F50A (Homo sapiens, UniProt Q9HBX9, F72A/Q71A); details: construct Q49A/F50A, ±s.e.m.
T3 construct: cells expressing full-length RXFP1 and mutants; expressed in transfected cells; host or cells: HEK293T
T3 sequence (Q9HBX9 23-757 Q71A/F72A limits assumed): T1 sequence (Q9HBX9 23-757 G67A limits assumed) with A45G, Q49A, F50A
How it was run: as §1

[4] = percentage of maximum response to 5 μM Forskolin

Question: Which “H2 relaxin pEC50” value ([1]; cAMP reporter) does the source give for “H2 relaxin: two-chain 6-kDa peptide hormone structurally related to insulin; recombinant human gene-2 H2 relaxin provided by Corthera” here?
Answer: 7.48±0.57 (4)

Question: And the “H2 relaxin Emax” value [1, 4]?
Answer: 135.94±31.68 (4) %

Question: And the “loss of H2 relaxin-stimulated cAMP activity” value ([2]; N43A/N44A RXFP1 versus wild-type RXFP1)?
Answer: 500 fold

Question: And the “H2 relaxin pEC50” value ([2]; construct N43N44-AA, cAMP reporter, ±s.e.m.)?
Answer: 8.29±0.63 (3)

Question: What about the “H2 relaxin Emax” value ([2]; construct N43N44-AA, percentage of maximum response to 5 μM Forskolin, ±s.e.m.) of the same substance?
Answer: 118.90±12.81 (3) %

Question: And the “H2 relaxin pEC50” value ([3]; cAMP reporter)?
Answer: 9.17±0.04 (3)

Question: And the “H2 relaxin Emax” value [3, 4]?
Answer: 98.2±8.8 (3) %
